This assay concerns the target Bluetongue virus (BTV-1) membrane penetration protein VP5 (bluetongue virus (BTV-1)). Nature of the assay: cryo-EM structure.

In publication PMC9667302 one finds stoichiometry N data, which are given here for one substance.

Consider “Bluetongue virus (BTV-1) membrane penetration protein VP5 (natural protein)”, for which the stoichiometry N (as a rule, a count of units in the complex or per binding partner) worked out at 3.
